Test results taken from paper PMC3319868.
Like-named read-outs stand apart in the source and are kept apart here.

Columns and labels:
HIF-1α;ARNT (HIF-1β) [1] = target: T1, HIF-1α;ARNT (HIF-1β) (human;human?, UniProt Q16665;P27540 1-826;1-789, |); assay: competition
HIF-1α;ARNT (HIF-1β) [2] = target: T1, HIF-1α;ARNT (HIF-1β); assay: competition; remark: listed apart in the source

T1 sequence (Q16665 whole entry, chain 1 of 2): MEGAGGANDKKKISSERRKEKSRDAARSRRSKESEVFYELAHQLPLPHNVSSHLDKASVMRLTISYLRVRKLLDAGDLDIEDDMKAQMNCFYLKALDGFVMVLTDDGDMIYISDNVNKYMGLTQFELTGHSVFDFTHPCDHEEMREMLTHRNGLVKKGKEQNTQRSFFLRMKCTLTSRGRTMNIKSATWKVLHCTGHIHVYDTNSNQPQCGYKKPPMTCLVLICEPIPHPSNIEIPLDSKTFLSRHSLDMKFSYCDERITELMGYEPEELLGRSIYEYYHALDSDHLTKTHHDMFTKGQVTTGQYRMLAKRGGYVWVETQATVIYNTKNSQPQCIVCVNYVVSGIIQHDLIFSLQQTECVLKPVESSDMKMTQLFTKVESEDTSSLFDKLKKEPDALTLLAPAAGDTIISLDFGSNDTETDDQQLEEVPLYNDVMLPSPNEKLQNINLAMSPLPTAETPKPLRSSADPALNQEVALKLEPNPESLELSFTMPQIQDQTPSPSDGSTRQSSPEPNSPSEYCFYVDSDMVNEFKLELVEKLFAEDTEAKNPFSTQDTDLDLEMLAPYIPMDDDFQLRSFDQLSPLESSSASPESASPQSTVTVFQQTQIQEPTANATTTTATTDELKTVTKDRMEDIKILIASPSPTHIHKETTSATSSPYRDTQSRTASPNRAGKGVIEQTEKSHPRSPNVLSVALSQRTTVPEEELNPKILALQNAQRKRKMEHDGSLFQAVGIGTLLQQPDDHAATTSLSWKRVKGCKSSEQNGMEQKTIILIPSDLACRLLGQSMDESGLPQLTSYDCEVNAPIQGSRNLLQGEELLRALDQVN
T1 sequence (P27540 whole entry, chain 2 of 2): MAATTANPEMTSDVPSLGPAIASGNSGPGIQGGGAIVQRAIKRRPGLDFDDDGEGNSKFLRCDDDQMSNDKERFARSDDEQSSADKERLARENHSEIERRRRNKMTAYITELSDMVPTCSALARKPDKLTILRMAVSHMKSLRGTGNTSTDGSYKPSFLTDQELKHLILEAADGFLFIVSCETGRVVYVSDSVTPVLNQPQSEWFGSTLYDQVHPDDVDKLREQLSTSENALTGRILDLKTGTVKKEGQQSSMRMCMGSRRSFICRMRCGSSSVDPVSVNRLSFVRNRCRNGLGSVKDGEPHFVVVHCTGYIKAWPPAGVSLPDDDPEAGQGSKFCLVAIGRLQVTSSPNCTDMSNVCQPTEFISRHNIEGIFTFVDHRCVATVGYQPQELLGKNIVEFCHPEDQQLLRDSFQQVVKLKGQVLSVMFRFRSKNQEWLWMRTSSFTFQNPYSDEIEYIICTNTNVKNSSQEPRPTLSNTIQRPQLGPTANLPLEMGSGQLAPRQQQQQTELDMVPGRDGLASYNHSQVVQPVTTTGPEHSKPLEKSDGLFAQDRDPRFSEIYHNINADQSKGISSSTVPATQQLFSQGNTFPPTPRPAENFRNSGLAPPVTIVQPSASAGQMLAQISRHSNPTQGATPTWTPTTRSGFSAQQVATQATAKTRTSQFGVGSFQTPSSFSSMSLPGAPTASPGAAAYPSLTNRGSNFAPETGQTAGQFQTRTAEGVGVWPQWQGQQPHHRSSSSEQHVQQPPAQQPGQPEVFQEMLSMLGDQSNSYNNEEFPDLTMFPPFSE

Binder	binding result (HIF-1α;ARNT (HIF-1β) [1])	binding result (HIF-1α;ARNT (HIF-1β) [2])
wild type HRE (OL568/OL569) (dsDNA) DNA 1: AGCTTGCCCTACGTGCTGTCTCAGA DNA 2: TCTGAGACAGCACGTAGGGCAAGCT	binds	
mutated HRE (OL570/OL571) (dsDNA) DNA 1: AGCTTGCCCTAGCTGCTGTCTCAGA DNA 2: TCTGAGACAGCAGCTAGGGCAAGCT		no binding
